# Results from publication PMC9772109 (Immunity, 2022).
# B1: mAb 789-203-3C12 (IgG) (antibody, V domains shown)
# VH: QVQLQESGPGLVKPSEILSLTCAVSGGSFSSYCWGWIRQPPGKGLEWIGSICGSGGSNYLNPSLKSRVTLSVDTSKNQFSLILNSVTAADTAVYYCAREGITIFGVVIPRVLDSWGQGAVVTVSS
# VL: DIQMTQSPSSLSASVGDTVTITCRASQSISSWLAWYQQKPGKAPNLLIYRASTLQSGVPSRFSGSGSGTDFTLTISSLQSEDFATYFCQQSTSSPFTFGPGTKLDIK
# Biological target: H1 HA (recombinant HA of Figure 4E) (Influenza A virus, H1 subtype; strain …, UniProt A0A1J0CXU0)
# Assay: BLI
binder,measurement,value
B1,binding result,binds
